In assay [1] the test system is β-arrestin1 or β-arrestin2. The note with it: cell culture assays; cited from earlier work.
Assay [2] concerns inflammatory pain model in rat. The conditions noted are these: cited from earlier work.
For assay [3], the target named is T1, Delta mMor1 (Mus musculus, UniProt P42866, INS358LEVLFQGP/INS51ENLYFQ).
T1 construct: expressed in transfected cells; host or cells: Sf9 insect cells, baculovirus-infected (BestBac)
Briefly: Flow cytometry binding of VHHs to Delta mMor1/Sf9 cells with or without Mor1 ligand. The conditions noted are these: for Side of Mor1 bound (intact versus permeable Sf9 cells, Topro3 gating) / Flow cytometry binding profile on Delta mMor1/Sf9 cells: periplasmic extracts; for Flow cytometry binding profile on Delta mMor1/Sf9 cells: no ligand, 20 μM Dmt1-Dalda or 20 μM naloxone, mock GPCR Sf9 as control. Background: In flow cytometry, cells or beads pass a laser one at a time.

Assay [4] addresses T2, truncDelta mMor1 (Mus musculus, UniProt P42866).
T2 construct: N- and C-termini are removed by enzymatic proteolysis, resulting in truncDelta mMor1; TEV cleavage site ENLYFQ (after G51 of P42866) (internal); made in house; host or cells: Sf9 insect cells (baculovirus); purified and reconstituted into lipid vesicles
Kind of assay: ELISA of VHH binding to truncDelta mMor1 reconstituted in liposomes. The note with it: periplasmic extracts, 10 μM Dmt1-Dalda.

Assay [5] concerns the target T3, WT human Mor1 (Homo sapiens, UniProt P35372).
T3 construct: purchased Perkin Elmer ES-542-M400UA; host or cells: CHO cells overexpressing wild-type human Mor1 (membranes)
Briefly: Radioligand displacement by XA8635 on WT human hMor1/CHO membranes. It is filed as binding. The note with it: 5 μg WT human hMor1/CHO membranes, 1 nM radioligand, no agonist. How it is done: (§1) A radioligand competition assay was performed as described in Example 6 with minor modifications: 5 μg of WT human hMor1/CHO membranes or 7 μg of Delta mMor1/Sf9 membranes were incubated with a concentration range of purified XA8635 and 1 nM of the radioligand (no agonist was added). The mixture was incubated for 1 hour at RT and after washing, filter bound radioligand was measured.
In general terms: Loss of bound radioactivity is the signal in a displacement assay; it reports binding, not function.

The target in assay [6] is T1, Delta mMor1. Kind of assay: Radioligand displacement by XA8635 on Delta mMor1/Sf9 membranes. The assay is classed as binding. The conditions noted are these: 7 μg Delta mMor1/Sf9 membranes, 1 nM radioligand, no agonist. As for the experimental part:
as §1

Assay [7] has as its target T4, human Mor1 (Homo sapiens, UniProt P35372).
T4 construct: expressed in transfected cells; host or cells: CHO cells
Briefly: Flow cytometry binding of mono- and bivalent XA8635 to Mor overexpressing CHO cells. The conditions noted are these: for Binding to Mor overexpressing CHO cells vs parental non-transfected CHO cells: absence of any Mor1 ligand.

In assay [8] the target is T5, Mor1 (Mus musculus, UniProt P42866). Kind of assay: Affinity of XA8635 for ligand-free Mor1. The conditions noted are these: read-out: Ki of binding to the receptor.
Assay [9] concerns the target T5, Mor1. The assay is classed as binding.

Substitutions are numbered along the chain they refer to.

T4 sequence (P35372 whole entry): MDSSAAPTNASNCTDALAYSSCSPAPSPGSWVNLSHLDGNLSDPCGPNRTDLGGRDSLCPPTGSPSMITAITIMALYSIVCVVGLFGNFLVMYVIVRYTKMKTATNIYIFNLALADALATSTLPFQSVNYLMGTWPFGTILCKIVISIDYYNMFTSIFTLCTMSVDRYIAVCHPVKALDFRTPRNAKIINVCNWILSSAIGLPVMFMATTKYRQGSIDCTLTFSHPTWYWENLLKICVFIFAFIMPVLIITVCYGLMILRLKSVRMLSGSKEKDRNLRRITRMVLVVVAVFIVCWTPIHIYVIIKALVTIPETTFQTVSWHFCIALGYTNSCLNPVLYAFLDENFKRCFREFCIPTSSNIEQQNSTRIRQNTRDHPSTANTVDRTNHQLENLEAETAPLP
T3 sequence (P35372 whole entry): as above

As to `COC(=O)[C@@H]1C[C@H](OC(=O)c2ccccc2)C(=O)[C@H]2[C@@]1(C)CC[C@H]1C(=O)O[C@H](c3ccoc3)C[C@]21C` [herkinorin], in assay [1], the “Recruitment of β-arrestin1 or β-arrestin2” value is given as “does not recruit β-arrestin1 or β-arrestin2”. Also, in [2] (morphine-tolerant rats), the “Antinociception in morphine-tolerant rats” value is recorded as “produces antinociception in morphine-tolerant rats”. Further, the Formalin-induced flinching entry in [2] (rat, 10 mg/kg, i.pl., reversed by naloxone) is recorded as “reduces formalin-induced flinching to the same degree as morphine”. For the same molecule, in assay [2] (repeated treatment over a 5-day period), the Antinociceptive tolerance result was “does not develop”.

B1: XA8727: Mor1-specific VHH, SEQ ID NO: 6, Profile III, intracellular binder (protein, listed as Lama glama)
VHH: QVQLVESGGGLVQAGGSLRLSCAASGFTFDDYAIAWFRQAPGKEREGVSCISSSDGSTYYADSVKGRFTISNDNAKNTVYLQMNSLKPEDTAVYYCAADLSRSCGRGYRYLEVWGQGTQVTVSSAAAHHHHHHGAAEQKLISEEDLNGAA
As to B1, in assay [3], the “Side of Mor1 bound (intact versus permeable Sf9 cells, Topro3 gating)” value was “intracellular part of Mor1” and the “Flow cytometry binding profile on Delta mMor1/Sf9 cells” value is listed as “Profile III”. Further, in assay [4], the “Binding to truncDelta mMor1 liposomes in ELISA” value is reported as “confirmed to bind Mor1 in ELISA”.

B2: XA8635: Mor1-specific VHH, SEQ ID NO: 5, Profile II, binds extracellular part and orthosteric pocket (protein, listed as Lama glama)
VHH: QVQLVESGGGLVQAGGSLRLSCAASGSISSISTMGWYRQAPGNERELVAAITSGGSTNYADSVKGRFTISRDNAKNTVYLQMNSLKPEDTAVYYCNFKYYSGSYFYKSEYDYWGQGTQVTVSSAAAHHHHHHGAAEQKLISEEDLNGAA
As a reminder, the Ki is a dissociation constant, usually derived from enzyme kinetics or from competition with a known ligand. Consider B2, for which, in assay [3] (1 μM purified VHH), the “Fluorescence profile of purified VHH compared to the one obtained with periplasm” value is “identical fluorescence profile”. In assay [3] (1 μM purified VHH, intact and permeable cells), the “Binding to Sf9 cells overexpressing Mor1 in presence of Mor1 ligand (agonist or antagonist)” value is on record as “loses its ability to specifically bind”. Moreover, in [3], the “Side of Mor1 bound (intact versus permeable Sf9 cells, Topro3 gating)” value is recorded as “extracellular part of the receptor” and the “Flow cytometry binding profile on Delta mMor1/Sf9 cells” value is reported as “Profile II”. Moreover, in [4], the “Binding to truncDelta mMor1 liposomes in ELISA” value was “confirmed to bind Mor1 in ELISA”. The Radioligand displacement entry in assay [5] is reported as “dose-dependent increase in radioligand displacement”. For the same molecule, the Radioligand displacement result in assay [6] is recorded as “dose-dependent increase in radioligand displacement”. The “Binding to Mor overexpressing CHO cells vs parental non-transfected CHO cells” value in assay [7] was “dose-dependent specific binding”. The Ki in assay [8] was around 12 nM.

B3: XA9644: Profile III VHH of a new sequence family, SEQ ID NO: 74 (protein, listed as Lama glama)
VHH: QVQLVESGGGLVRPGGSLRLSCVDSERIFSISAMGWYRQAPGKQRELVATITSGGTTNYADSVKGRFTISGDTAKNMVYLQMSSLKPEDTAVYYCAADMEVWDYTDGDDDDYWGQGTQVTVSSAAAHHHHHHGAAEQKLISEEDLNGAA
With B3, the “Flow cytometry binding profile on Delta mMor1/Sf9 cells” value in assay [3] was “Profile III”.

B4: XA8633: Mor1-specific VHH, SEQ ID NO: 1, Profile I, candidate G-protein mimicking, active state stabilizing (protein, listed as Lama glama)
VHH: QVQLVESGGGLVRPGGSRRLSCVDSERTSYPMGWFRRAPGKEREFVASITWSGIDPTYADSVADRFTISRDVANNTLYLQMNSLKHEDTAVYYCAARAPVGQSSSPYDYDYWGQGTQVTVSSAAAHHHHHHGAAEQKLISEEDLNGAA
In the case of B4, the “Fluorescence profile of purified VHH compared to the one obtained with periplasm” value in assay [3] (1 μM purified VHH) is listed as “identical fluorescence profile”. Further, in assay [3], the “Side of Mor1 bound (intact versus permeable Sf9 cells, Topro3 gating)” value is recorded as “intracellular epitopes” and the “Flow cytometry binding profile on Delta mMor1/Sf9 cells” value was “Profile I”. The “Binding to truncDelta mMor1 liposomes in ELISA” value in assay [4] is recorded as “confirmed to bind Mor1 in ELISA”.

B5: XA8639: Mor1-specific VHH, SEQ ID NO: 2, Profile I, G-protein mimetic (protein, listed as Lama glama)
VHH: B4 VHH with R18L, I68T
B5: in assay [3], the “Side of Mor1 bound (intact versus permeable Sf9 cells, Topro3 gating)” value is listed as “intracellular epitopes” and the “Flow cytometry binding profile on Delta mMor1/Sf9 cells” value is recorded as “Profile I”. Besides, in assay [4], the “Binding to truncDelta mMor1 liposomes in ELISA” value was “confirmed to bind Mor1 in ELISA”. For the same molecule, the “Enhancement of affinity for BU72” value in [9] was 176 fold.

B6: XA8641: Mor1-specific VHH, SEQ ID NO: 3, Profile I (protein, listed as Lama glama)
VHH: B4 VHH with R18L, E26G
Take B6: in [3], the “Side of Mor1 bound (intact versus permeable Sf9 cells, Topro3 gating)” value was “intracellular epitopes” and the “Flow cytometry binding profile on Delta mMor1/Sf9 cells” value is reported as “Profile I”. Further, in assay [4], the “Binding to truncDelta mMor1 liposomes in ELISA” value is given as “confirmed to bind Mor1 in ELISA”.

B7: XA8643: Mor1-specific VHH, SEQ ID NO: 4, Profile I (protein, listed as Lama glama)
VHH: B4 VHH with R18L
Consider B7, for which, in assay [3], the “Side of Mor1 bound (intact versus permeable Sf9 cells, Topro3 gating)” value is “intracellular epitopes” and the “Flow cytometry binding profile on Delta mMor1/Sf9 cells” value is reported as “Profile I”. Moreover, in [4], the “Binding to truncDelta mMor1 liposomes in ELISA” value is on record as “confirmed to bind Mor1 in ELISA”.

B8: bivalent XA8635: genetic head to tail fusion of XA8635, separated by a 9GS linker, SEQ ID NO: 49 (protein)
chain: QVQLVESGGGLVQAGGSLRLSCAASGSISSISTMGWYRQAPGNERELVAAITSGGSTNYADSVKGRFTISRDNAKNTVYLQMNSLKPEDTAVYYCNFKYYSGSYFYKSEYDYWGQGTQVTVSSGGGGSGGGSQVQLQESGGGLVQAGGSLRLSCAASGSISSISTMGWYRQAPGNERELVAAITSGGSTNYADSVKGRFTISRDNAKNTVYLQMNSLKPEDTAVYYCNFKYYSGSYFYKSEYDYWGQGTQVTVSSAAAEQKLISEEDLNGAAHHHHHH
Regarding B8, in assay [7] (1 μM), the “Increased fluorescence versus monovalent XA8635” value was “approximately 34%”. Also, the “Binding to Mor overexpressing CHO cells vs parental non-transfected CHO cells” value in assay [7] is given as “dose-dependent specific binding”.

(Values after patent US10233241B2 (priority 2014, dated 2019).)
